Molecular target: the molecule itself
Assay: nonreducing SDS-PAGE + mass spectrometry of the band

B1: native Bet v 1d in aqueous birch pollen extract (BPE) (natural protein, UniProt P43177 1-160, looked up)
chain: MGVFNYEIETTSVIPAARLFKAFILDGDNLVPKVAPQAISSVENIEGNGGPGTIKKINFPEGFPFKYVKDRVDEVDHTNFKYNYSVIEGGPVGDTLEKISNEIKIVATPDGGCVLKISNKYHTKGNHEVKAEQVKASKEMGETLLRAVESYLLAHSDAYN
  stoichiometry N: 2

Reference: publication PMC2968749 (Journal of immunology (Baltimore, Md. : 1950), 2009)
